For 1 molecule, fold level in the DISC (anti-DR5 immunoprecipitate), TRAIL+QC treated against untreated cells results are on record in publication PMC5352116.

The target in the assay is Death Receptor 5 (DR5) (human (endogenous in MCF-10A-Tr)), O14763. The assay can be described thus: co-IP; DISC analysis: MCF-10A-Tr cells untreated or treated with QC, TRAIL or TRAIL (10 ng/mL, 3 h) then QC (2.5 uM, 48 h); RIPA lysate, pre-cleared with sepharose-4B beads, immunoprecipitated with anti-DR5 antibody at 4°C overnight; western blot. The following applies: remark: other sources report otherwise. For orientation: In western blotting, separated proteins are transferred to a membrane and probed.

B1: CASPASE 8, Q14790 1-479 (enzyme)
chain: MDFSRNLYDIGEQLDSEDLASLKFLSLDYIPQRKQEPIKDALMLFQRLQEKRMLEESNLSFLKELLFRINRLDLLITYLNTRKEEMERELQTPGRAQISAYRVMLYQISEEVSRSELRSFKFLLQEEISKCKLDDDMNLLDIFIEMEKRVILGEGKLDILKRVCAQINKSLLKIINDYEEFSKERSSSLEGSPDEFSNGEELCGVMTISDSPREQDSESQTLDKVYQMKSKPRGYCLIINNHNFAKAREKVPKLHSIRDRNGTHLDAGALTTTFEELHFEIKPHDDCTVEQIYEILKIYQLMDHSNMDCFICCILSHGDKGIIYGTDGQEAPIYELTSQFTGLKCPSLAGKPKVFFIQACQGDNYQKGIPVETDSEEQPYLEMDLSSPQTRYIPDEADFLLGMATVNNCVSYRNPAEGTWYIQSLCQSLRERCPRGDDILTILTEVNYEVSNKDDKKNMGKQMPQPTFTLRKKLVFPSD
The molecule B1 yielded a fold level in the DISC (anti-DR5 immunoprecipitate), TRAIL+QC treated against untreated cells of 7 fold.
